The supplement of paper PMC9112550, “Optimization of the antimicrobial peptide Bac7 by deep mutational scanning” (BMC Biology, 2022)

system: Escherichia coli TOP10; assay: shrunken log2 fold change of peptide-encoding DNA abundance (4.5 h post-induction vs induction); higher = less antimicrobial activity (less host growth inhibition); details: time post-induction: 4.5 h; library: site-saturation at positions 5, 18, 19, 20
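Note: peptides expressed intracellularly from a pBAD plasmid library in pooled LB shake-flask culture, induced with 0.3% L-arabinose, DNA abundance read by NGS, three biological replicates, DESeq2 with apeglm shrinkage.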

Sequence	shrunken log2 fold change
RRIRMRPPRLPRPRPRPMMYPRP	-0.0758
RRIRERPPRLPRPRPRPVWMPRP	-0.0846
RRIRARPPRLPRPRPRPYFSPRP	-0.624
RRIRNRPPRLPRPRPRPQGKPRP	0.0697
RRIRMRPPRLPRPRPRPKYRPRP	0.0666
RRIRLRPPRLPRPRPRPDTSPRP	-0.114
RRIRGRPPRLPRPRPRPKEFPRP	-0.0157
RRIRFRPPRLPRPRPRPNVSPRP	-0.0196
RRIRDRPPRLPRPRPRPWIMPRP	-0.0114
RRIRFRPPRLPRPRPRPEQYPRP	-0.234
RRIRGRPPRLPRPRPRPDYMPRP	-0.0973
RRIRCRPPRLPRPRPRPCDIPRP	-0.0278
RRIRQRPPRLPRPRPRPFKWPRP	-0.185
RRIRPRPPRLPRPRPRPWSDPRP	-0.267
RRIRYRPPRLPRPRPRPKDYPRP	-0.787
RRIRQRPPRLPRPRPRPCMAPRP	-0.117
RRIRPRPPRLPRPRPRPFSDPRP	-0.0761
RRIRFRPPRLPRPRPRPKFVPRP	-0.0222
RRIRTRPPRLPRPRPRPLHTPRP	-0.161
RRIRMRPPRLPRPRPRPLWWPRP	0.795
RRIRVRPPRLPRPRPRPIVRPRP	-0.0635
RRIRLRPPRLPRPRPRPWQYPRP	-0.0471
RRIRIRPPRLPRPRPRPIPLPRP	3.4
RRIRIRPPRLPRPRPRPKIKPRP	-0.696
RRIRRRPPRLPRPRPRPKVTPRP	-0.131

Sequence	shrunken log2 fold change
RRIRDRPPRLPRPRPRPYIMPRP	-0.42
RRIRARPPRLPRPRPRPHKEPRP	0.131
RRIRLRPPRLPRPRPRPGDHPRP	-0.202
RRIRVRPPRLPRPRPRPSLRPRP	0.133
RRIRNRPPRLPRPRPRPCFYPRP	-0.474
RRIRPRPPRLPRPRPRPEEWPRP	-0.0099
RRIRPRPPRLPRPRPRPLTQPRP	0.0664
RRIRARPPRLPRPRPRPKTWPRP	0.261
RRIRVRPPRLPRPRPRPPKHPRP	0.0761
RRIRYRPPRLPRPRPRPTKVPRP	-0.235
RRIRCRPPRLPRPRPRPTFSPRP	-0.187
RRIRNRPPRLPRPRPRPQSEPRP	-0.0564
RRIRWRPPRLPRPRPRPNLIPRP	0.0144
RRIRVRPPRLPRPRPRPMSTPRP	-0.268
RRIRARPPRLPRPRPRPLWFPRP	0.145
RRIRLRPPRLPRPRPRPSWWPRP	1.77
RRIRRRPPRLPRPRPRPDFSPRP	-0.18
RRIRVRPPRLPRPRPRPTNVPRP	-0.374
RRIRHRPPRLPRPRPRPAFAPRP	0.278
RRIRVRPPRLPRPRPRPAEAPRP	0.729
RRIRYRPPRLPRPRPRPNTRPRP	-0.703
RRIRFRPPRLPRPRPRPEPTPRP	0.805
RRIRHRPPRLPRPRPRPMPRPRP	0.069
RRIRDRPPRLPRPRPRPRFFPRP	0.226
RRIRGRPPRLPRPRPRPTCDPRP	0.432

Sequence	shrunken log2 fold change
RRIRYRPPRLPRPRPRPVTVPRP	-0.302
RRIRKRPPRLPRPRPRPIFAPRP	0.454
RRIRERPPRLPRPRPRPFILPRP	-0.784
RRIRCRPPRLPRPRPRPSWGPRP	0.258
RRIRLRPPRLPRPRPRPLYKPRP	-0.328
RRIRDRPPRLPRPRPRPFEKPRP	0.00649
RRIRHRPPRLPRPRPRPKPYPRP	-0.277
RRIRERPPRLPRPRPRPGYNPRP	-0.0871
RRIRMRPPRLPRPRPRPRPHPRP	1.05
RRIRMRPPRLPRPRPRPVCKPRP	0.222
RRIRERPPRLPRPRPRPDKVPRP	-0.121
RRIRDRPPRLPRPRPRPVKCPRP	-0.117
RRIRHRPPRLPRPRPRPGVEPRP	0.0675
RRIRCRPPRLPRPRPRPICCPRP	-0.166
RRIRSRPPRLPRPRPRPEFMPRP	0.135
RRIRARPPRLPRPRPRPVCGPRP	0.653
RRIRPRPPRLPRPRPRPNHFPRP	-0.592
RRIRTRPPRLPRPRPRPMEHPRP	0.118
RRIRERPPRLPRPRPRPLCYPRP	-0.824
RRIRHRPPRLPRPRPRPWEEPRP	-0.0121
RRIRPRPPRLPRPRPRPKSCPRP	0.0347
RRIRFRPPRLPRPRPRPNAAPRP	0.419
RRIRWRPPRLPRPRPRPVTMPRP	-0.0519
RRIRNRPPRLPRPRPRPANPPRP	0.0813
RRIRHRPPRLPRPRPRPTIFPRP	-0.0675

Sequence	shrunken log2 fold change
RRIRTRPPRLPRPRPRPTKRPRP	0.139
RRIRKRPPRLPRPRPRPSDCPRP	-0.00471
RRIRYRPPRLPRPRPRPHLCPRP	-0.0639
RRIRMRPPRLPRPRPRPDCIPRP	1.76
RRIRQRPPRLPRPRPRPTLEPRP	0.0818
RRIRWRPPRLPRPRPRPPYIPRP	-0.3
RRIRWRPPRLPRPRPRPILMPRP	-0.286
RRIRDRPPRLPRPRPRPQRVPRP	0.143
RRIRCRPPRLPRPRPRPDQRPRP	-0.254
RRIRLRPPRLPRPRPRPQDDPRP	-0.224
RRIRTRPPRLPRPRPRPPPVPRP	0.652
RRIRRRPPRLPRPRPRPRSMPRP	0.468
RRIRGRPPRLPRPRPRPCQMPRP	0.215
RRIRHRPPRLPRPRPRPQKYPRP	-0.383
RRIRERPPRLPRPRPRPFQLPRP	0.053
RRIRQRPPRLPRPRPRPSWEPRP	-0.141
RRIRYRPPRLPRPRPRPTRGPRP	0.543
RRIRYRPPRLPRPRPRPENGPRP	0.0143
RRIRRRPPRLPRPRPRPRNNPRP	-0.204
RRIRDRPPRLPRPRPRPDVLPRP	0.0169
RRIRGRPPRLPRPRPRPMHNPRP	0.383
RRIRHRPPRLPRPRPRPQQGPRP	-0.14
RRIRQRPPRLPRPRPRPTKSPRP	0.00581
RRIRLRPPRLPRPRPRPAQDPRP	0.392
RRIRTRPPRLPRPRPRPDIIPRP	-0.232

Sequence	shrunken log2 fold change
RRIRNRPPRLPRPRPRPPTGPRP	0.154
RRIRSRPPRLPRPRPRPDRWPRP	0.0855
RRIRMRPPRLPRPRPRPYCIPRP	0.0786
RRIRRRPPRLPRPRPRPEIYPRP	0.0166
RRIRERPPRLPRPRPRPVLMPRP	0.0559
RRIRVRPPRLPRPRPRPKNWPRP	0.185
RRIRSRPPRLPRPRPRPCADPRP	0.0939
RRIRMRPPRLPRPRPRPWIWPRP	0.106
RRIRMRPPRLPRPRPRPVGCPRP	0.972
RRIRGRPPRLPRPRPRPKCYPRP	0.107
RRIRKRPPRLPRPRPRPKEYPRP	0.191
RRIRQRPPRLPRPRPRPRTDPRP	0.00812
RRIRERPPRLPRPRPRPSIMPRP	-1.02
RRIRDRPPRLPRPRPRPQKWPRP	0.15
RRIRYRPPRLPRPRPRPWLRPRP	0.0188
RRIRVRPPRLPRPRPRPNEPPRP	0.097
RRIRDRPPRLPRPRPRPYEKPRP	-0.191
RRIRCRPPRLPRPRPRPWYPPRP	-0.742
RRIRIRPPRLPRPRPRPFESPRP	-0.218
RRIRGRPPRLPRPRPRPMMHPRP	0.456
RRIRWRPPRLPRPRPRPSNKPRP	-0.403
RRIRPRPPRLPRPRPRPHSHPRP	0.00335
RRIRDRPPRLPRPRPRPIYRPRP	-0.175
RRIRIRPPRLPRPRPRPVNNPRP	-0.272
RRIRGRPPRLPRPRPRPTHDPRP	1.72

Sequence	shrunken log2 fold change
RRIRDRPPRLPRPRPRPWFGPRP	0.228
RRIRGRPPRLPRPRPRPPNNPRP	0.835
RRIRFRPPRLPRPRPRPCIVPRP	-0.637
RRIRKRPPRLPRPRPRPWFAPRP	0.171
RRIRWRPPRLPRPRPRPDLPPRP	0.0222
RRIRQRPPRLPRPRPRPMSRPRP	-0.0221
RRIRARPPRLPRPRPRPFTYPRP	-0.0975
RRIRLRPPRLPRPRPRPNKTPRP	0.0829
RRIRHRPPRLPRPRPRPIYNPRP	-0.898
RRIRTRPPRLPRPRPRPQIYPRP	-0.179
RRIRHRPPRLPRPRPRPACNPRP	-0.155
RRIRWRPPRLPRPRPRPMYGPRP	-0.0856
RRIRVRPPRLPRPRPRPGNDPRP	-0.0387
RRIRRRPPRLPRPRPRPWQSPRP	-0.0153
RRIRFRPPRLPRPRPRPIQSPRP	-0.127
RRIRNRPPRLPRPRPRPEDTPRP	-0.0307
RRIRNRPPRLPRPRPRPDINPRP	-0.482
RRIRIRPPRLPRPRPRPHEMPRP	-0.143
RRIRYRPPRLPRPRPRPDKQPRP	0.0233
RRIRIRPPRLPRPRPRPIEVPRP	-0.0018
RRIRCRPPRLPRPRPRPYGPPRP	-0.398
RRIRYRPPRLPRPRPRPLACPRP	-0.319
RRIRSRPPRLPRPRPRPVHWPRP	0.138
RRIRARPPRLPRPRPRPVGIPRP	-0.102
RRIRPRPPRLPRPRPRPYCKPRP	-0.896
